Measured values from US7081343.

Target: T7-RelA (UniProt Q04206)
Sequence (Q04206 whole entry): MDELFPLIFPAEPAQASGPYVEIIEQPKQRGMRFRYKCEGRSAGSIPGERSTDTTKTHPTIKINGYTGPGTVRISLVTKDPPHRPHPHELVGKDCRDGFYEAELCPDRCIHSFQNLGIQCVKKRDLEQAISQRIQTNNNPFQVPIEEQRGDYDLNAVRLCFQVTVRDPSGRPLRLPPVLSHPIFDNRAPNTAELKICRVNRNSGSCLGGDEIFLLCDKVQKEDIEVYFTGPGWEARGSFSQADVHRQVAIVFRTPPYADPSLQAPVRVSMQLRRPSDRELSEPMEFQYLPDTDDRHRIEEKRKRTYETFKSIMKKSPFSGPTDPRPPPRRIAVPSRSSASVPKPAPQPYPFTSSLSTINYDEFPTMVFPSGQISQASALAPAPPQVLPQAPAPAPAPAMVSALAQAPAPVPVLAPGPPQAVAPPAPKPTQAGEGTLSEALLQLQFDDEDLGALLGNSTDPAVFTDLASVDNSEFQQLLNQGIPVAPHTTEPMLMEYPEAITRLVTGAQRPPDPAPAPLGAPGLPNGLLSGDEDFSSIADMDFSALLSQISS

Row | Substance | acetylation of T7-RelA (anti-T7 immunoprecipitation, anti-acetylated lysine blot)
1 | CBP | Co-expression of either p300 or CBP with RelA produced dose related acetylation of T7-Rel A
2 | p300 | Co-expression of either p300 or CBP with RelA produced dose related acetylation of T7-Rel A
